Substrate in the data set: O=C(O)C(=O)O
As to the kind of experiment: purified protein. The conditions noted are these: pH 8.0, 5 mM ATP, 0.5 mM CoA, 10 mM MgCl2, 2 mM DTT, oxalate up to 400 μM.

B1: MtAAE3 (Medicago truncatula Acyl Activating Enzyme 3; oxalyl-CoA synthetase) (Medicago truncatula) (protein)
chain: ETATTLTGLLQSVAEKFPSRRAISVAGKFDLTHSQLHELVESAANHLISAGIKPNDVVALTFPNTIEYVIMFLAVIRVRATAAPLNAAYTSEEFEFYLSDSESKLLLTPLEGNNPAQTAATKLNIPLGSVCFNKTEEETKLSISLNQTESANSVSELINEPSDVALFLHTSGTTSRPKGVPLSQHNLVSSVRNIESVYRLSELDSTVIVLPLFHVHGLIAGLLSSLGAGGAVALPAAGRFSASTFWKDMIQYNATWYTAVPTIHQIILDRHQSNPEPVYPKLRFIRSCSASLAPVILGRLEEAFGAPVLEAYAMTEATHLMCSNPLPEDGPHKAGSVGKPVGQEMAILDESGRVLEADVNGEVCIKGENVTKGYKNNEEANKSAFLFGWFHTGDIGYFDSDGYLHLVGRIKELINRGGEKISPIEVDAVLLGHQDVAQAVAFGVPDQKYGEEIHCAIIPREGSNIDAEEVLKYCKTNLTSFKVPKKVFITDSLPKTATGKILRRLVAEHFVSQA
On to B1, for which the Km – broadly, the concentration of substrate that gives half-maximal velocity – stood at 81.0 ± 8.1 µM.
